Experimental data from patent US20190359698A1 (YAMAGUCHI UNIVERSITY, published 2019).
Positions count from the first letter of the chain named.

B1: IgG clone TF1413-02d028 (antibody, V domains shown)
VH: QVQLKESGPELEKPGASVKISCKASGYSFTGYNMNWVKQSNGKSLEWIGNIDPYYGGTSYNQKFKGKATLTVDKSSSTAYMQLKSLTSEDSAVYYCARGDYRAYYFDYWGQGTTLTVSS
VL: DIQMTQSPKFMSTSVGDRVSITCKASQNVRTAVAWYQQKPGQSPKALIYLASNRHTGVPDRFTGSGSGTDFTLTISNVQSEDLADYFCLQHWNYPLTFGAGTKLELKR
notes: also called TF1413-02d028 IgG antibody; scFv clone [TF1413-02d028] antibody
B2: IgG clone TF1413-03e034 (antibody, V domains shown)
VH: B1 VH with Q1E, K5Q, E6Q, D100N, R102G, A103Y, Y105A, F106M, T114S, L115V
VL: B1 VL with Q3V, T5S
notes: also called TF1413-03e034 IgG antibody
B3: IgG clone TF1413-02e004 (antibody, V domains shown)
VH: QVQLQQSGAELVKPGAPVKLSCKASGYTFTSYWMNWVKQRPGRGLEWIGRIDPSDSETHYNQKFKDEATLTVDKSSSTAYIQLSSLTSEDSAVYYCARGYYAMDYWGQGTSVTVSS
VL: DIVLTQSPKFMSTSVGDRVSITCKASQDVSTAVAWYQQKPGQSPKLLIYSASYRYTGVPDRFTGSGSGTDFTFTISSVQAEDLAVYYCQQHYSTPTFGGGTKLEIKR
notes: also called TF1413-02e004 IgG antibody
B4: IgG clone TF1413-02e014 (antibody, V domains shown)
VH: QVQLKQSGAELVRSGASVKLSCTASGFNIKDYYMHWVKQRPEQGLEWIGWIDPENGDTEYAPKFQGKATMTADTSSNTAYLQLSSLTSEDTAVYYCNAGYYDYDGYAMDYWGQGTSVTVSS
VL: DIVLTQSPKFMSTSVGDRVSITCKASQDVGTAVAWYQQKPGQSPKLLIYWASTRHTGVPDRFTGSGSGTDFTLTISNVQSEDLADYFCQQYSSYPLTFGGGTKLEIKR
notes: also called TF1413-02e014 IgG antibody
B5: IgG clone TF1413-02e040 (antibody, V domains shown)
VH: EVMLVESGPELVKPGASMKISCKASGYSFTGYTMNWVKQSHGKNLEWIGLINPYNGGTSYNQNFKGKATLTVDKSSSTAYMELLSLTSEDSAVYYCARGYYGRFDYWGQGTTLTVSS
VL: B1 VL with Q3L, M4L
notes: also called TF1413-02e040 IgG antibody
B6: IgG clone TF1413-03e005 (antibody, V domains shown)
VH: B4 VH with Q6E, G99F, S121R
VL: DVVMTQTPSSLSASLGERVSLTCRASQEISGYLSWLQQKPDGTIKRLIYAASTLDSGVPKRFSGSRSGSDYSLTISSLESEDFADYYCLQYASYPLTFGAGTKLELKR
notes: also called TF1413-03e005 IgG antibody
B7: IgG clone TF1413-03e015 (antibody, V domains shown)
VH: EVQLQQSGPELVKPGASMKISCKASGYSFTGYTMNWVKQSHGKNLEWIGLINPYNGGTSYNQKFKGKATLTVDKSSSTAYMELLSLTSEDSAVYYCARGDYYPPYAMDYWGQGTSVTVSS
VL: DIVMSQSPKFMSTSVGDRVSVTCKASQNVGTNVAWYQQKPGQSPKPLIYSASYRYSGVPDRFTGSGSGTDFTLTISNVQSEDLAEYFCQQYNRYPLTFGVGTKLEIKR
notes: also called TF1413-03e015 IgG antibody
B8: IgG clone TF1413-02d039 (antibody, V domains shown)
VH: EVKLVESGGGLVKPGGSLKLSCAASGFAFSSYDMSWVRQTPEKRLEWVAYISSGGGSTYYPDTVKGRFTISRDNAKNTLYLQMSSLKSEDTAMYYCARRGLRRAMDYWGQGTSVTVSS
VL: DVVMTQTPLSLPVSLGDQASISCRSSQSLVHSNGNTYLHWYLQKPGQSPKLLIYKVSNRFSGVPDRFSGSGSGTDFTLKISRVEAEDLGVYFCSQSTHVPLTFGAGTKLELKR
notes: also called TF1413-02d039 IgG antibody
B9: IgG clone TF1413-02e030 (antibody, V domains shown)
VH: EVQLQQSGAELVRPGALVKLSCKASGFNIKDYYMHWVKQRPEQGLEWIGWIDPENGNTIYDPKFQGKASITADTSSNTAYLQLSSLTSEDTAVYYCAISTMITTLDYWGQGTTLTVSS
VL: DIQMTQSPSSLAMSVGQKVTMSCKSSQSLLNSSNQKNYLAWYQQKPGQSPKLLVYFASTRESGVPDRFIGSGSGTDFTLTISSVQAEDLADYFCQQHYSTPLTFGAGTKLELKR
notes: also called TF1413-02e030 IgG antibody
B10: IgG clone TF1413-03e004 (antibody, V domains shown)
VH: B3 VH with Q5K, E67K, A102G, M103S, D104N, S111T, V112L
VL: B7 VL with V3K, S5T, P46A, R93S, V100A, I106L
notes: also called TF1413-03e004 IgG antibody

Columns and labels:
[1] = target: T1, GPC3 C-terminal fragment (polypeptide consisting of the amino acid sequence represented by SEQ ID NO: 156) (human); assay: FCM of IgG on GPC3 C-terminal fragment-expressing cell line
T1 construct: domain: transmembrane domain; also called GPC3 C-terminal fragment-expressing cell line; C-terminal polypeptide of GPC3; not shown: HA tag added to the N terminus by the pDisplay vector; myc tag added to the C terminus of the PDGFR by the pDisplay vector

[2] = target: T2, GPC3 N-terminal fragment (polypeptide consisting of the amino acid sequence represented by SEQ ID NO: 155) (human); assay: FCM of IgG on GPC3 N-terminal fragment-expressing cell line
T2 construct: domain: transmembrane domain; also called GPC3 N-terminal fragment-expressing cell line; N-terminal polypeptide of GPC3; not shown: HA tag added to the N terminus by the pDisplay vector; myc tag added to the C terminus of the PDGFR by the pDisplay vector
T2 sequence (P09619 other isoform, or with tags, fused parts or gaps): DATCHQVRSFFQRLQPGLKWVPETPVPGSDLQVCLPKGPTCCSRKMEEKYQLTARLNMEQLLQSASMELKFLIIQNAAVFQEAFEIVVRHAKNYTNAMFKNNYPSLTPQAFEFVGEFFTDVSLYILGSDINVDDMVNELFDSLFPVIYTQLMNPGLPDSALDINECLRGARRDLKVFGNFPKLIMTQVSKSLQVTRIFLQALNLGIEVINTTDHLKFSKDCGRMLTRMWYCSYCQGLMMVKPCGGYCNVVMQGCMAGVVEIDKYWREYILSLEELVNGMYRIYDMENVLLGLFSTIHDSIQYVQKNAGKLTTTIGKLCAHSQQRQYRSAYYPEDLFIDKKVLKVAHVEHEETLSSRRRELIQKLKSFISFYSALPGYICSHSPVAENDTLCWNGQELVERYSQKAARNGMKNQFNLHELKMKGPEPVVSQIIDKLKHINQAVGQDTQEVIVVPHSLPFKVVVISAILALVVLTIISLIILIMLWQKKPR

T1 sequence (P09619 other isoform, or with tags, fused parts or gaps): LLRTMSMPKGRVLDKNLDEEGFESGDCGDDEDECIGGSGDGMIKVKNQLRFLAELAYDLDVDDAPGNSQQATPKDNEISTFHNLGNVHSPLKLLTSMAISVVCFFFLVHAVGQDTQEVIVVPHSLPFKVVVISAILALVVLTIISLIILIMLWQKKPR

binding result [1] | binding result [2] | Binder
no binding | binds | B1
no binding | binds | B2
no binding | binds | B3
no binding | binds | B4
no binding | binds | B5
no binding | binds | B6
 | no binding | B7
no binding |  | B8
no binding |  | B9
no binding |  | B10
